# Results from US20230265179A1 (TWIST BIOSCIENCE, published 2023).
# Experiments:
# [1] = target: T1, IL1RL1 over-expressed on Expi293 cells (UniProt Q01638 19-556, limits assumed); experiment: flow cytometry, 100 nM antibody, over-expressing Expi293 / parent cells
# T1 construct: whole, on cells; Target of the flow cytometry MFI ratio (over-expressing cells over parent cells); also called cytokine over-expressing Expi293 cells
# T1 sequence (looked up): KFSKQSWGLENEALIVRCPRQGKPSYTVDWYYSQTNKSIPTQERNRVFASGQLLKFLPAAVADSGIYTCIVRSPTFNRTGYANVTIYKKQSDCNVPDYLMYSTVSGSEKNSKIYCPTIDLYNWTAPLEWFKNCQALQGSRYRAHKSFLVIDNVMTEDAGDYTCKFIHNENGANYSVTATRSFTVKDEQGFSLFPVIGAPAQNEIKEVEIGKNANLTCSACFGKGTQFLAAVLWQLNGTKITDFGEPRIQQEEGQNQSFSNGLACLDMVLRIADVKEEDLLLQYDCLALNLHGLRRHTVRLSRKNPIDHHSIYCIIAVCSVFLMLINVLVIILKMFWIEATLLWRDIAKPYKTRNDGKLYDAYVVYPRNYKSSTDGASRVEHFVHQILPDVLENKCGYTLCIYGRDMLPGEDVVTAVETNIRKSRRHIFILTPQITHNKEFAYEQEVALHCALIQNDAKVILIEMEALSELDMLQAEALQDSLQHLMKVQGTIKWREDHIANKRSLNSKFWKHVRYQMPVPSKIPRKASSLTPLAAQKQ
# Procedure: All incubations and washes were in buffer containing PBS+1% BSA. MFI Ratio is defined by the mean fluorescence intensity (MFI) of the cytokine over-expressing Expi293 cell over the Expi293 parent cell. […] EC50 was calculated in GraphPad Prism.
# IL1RL1 = target: T2, IL1RL1 (UniProt Q01638 19-328, limits assumed); experiment: SPR (Carterra LSA), antibody amine-coupled, 1:1 model;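 further: HC30M sensor chip at 25 °C in HBS-TE, analyte at rising concentrations in buffer containing 0.5 mg/mL BSA, 5 min association then 15 min dissociation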
# T2 construct: SPR analyte
# T2 sequence (looked up): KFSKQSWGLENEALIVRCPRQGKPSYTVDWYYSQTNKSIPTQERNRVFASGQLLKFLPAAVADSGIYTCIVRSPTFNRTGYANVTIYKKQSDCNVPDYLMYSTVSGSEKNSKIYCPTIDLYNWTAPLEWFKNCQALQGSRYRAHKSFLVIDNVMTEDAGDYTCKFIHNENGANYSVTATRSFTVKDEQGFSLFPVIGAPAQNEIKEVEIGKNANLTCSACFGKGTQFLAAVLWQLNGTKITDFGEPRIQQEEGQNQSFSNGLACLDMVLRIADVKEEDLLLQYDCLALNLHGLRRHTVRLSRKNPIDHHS
Binder,100 nM FACS (MFI Ratio) [1],Kd (IL1RL1),koff (IL1RL1),kon (IL1RL1)
"IL1RL1-21 (Fc fusion, not shown: a dimerising Fc or GST, VHH-Fc on IgG2 Fc) VHH: EVQLVESGGGLVQPGGSLRLSCAASGTITSAVFMGWFRQAPGKEREFVAGIIGSGGATYYADSVKGRFTISADNSKNTAYLQMNSLKPEDTAVYYCAASRYARERDVHAYDWGQGTLVTVSS",521 MFI ratio,0.409 nM,5.04e-05 s⁻¹,123000 M⁻¹ s⁻¹
"IL1RL1-12 (Fc fusion, not shown: a dimerising Fc or GST, VHH-Fc on IgG2 Fc) VHH: EVQLVESGGGLVQPGGSLRLSCAASGSIFGLNAMGWFRQAPGKEREFVAAISRFGSTDYADSVKGRFTISADNSKNTAYLQMNSLKPEDTAVYYCARSYCTADSCYSSWFDPWGQGTLVTVSS",437 MFI ratio,4.08 nM,0.000326 s⁻¹,80100 M⁻¹ s⁻¹
"IL1RL1-16 (Fc fusion, not shown: a dimerising Fc or GST, VHH-Fc on IgG2 Fc) VHH: EVQLVESGGGLVQPGGSLRLSCAASGFSLDYYGMGWFRQAPGKEREGVATINWSGATSYADSVKGRFTISADNSKNTAYLQMNSLKPEDTAVYYCAIPGVWGQGTLVTVSS",478 MFI ratio,5.71 nM,0.0011 s⁻¹,193000 M⁻¹ s⁻¹
"IL1RL1-17 (Fc fusion, not shown: a dimerising Fc or GST, VHH-Fc on IgG2 Fc) VHH: EVQLVESGGGLVQPGGSLRLSCAASGRDLDYYAMGWFRQAPGKEREWVSSIGIAGTPTFYADSVKGRFTISADNSKNTAYLQMNSLKPEDTAVYYCAVVDLLRGKLWGQGTLVTVSS",415 MFI ratio,2.76 nM,0.000588 s⁻¹,213000 M⁻¹ s⁻¹
"IL1RL1-10 (Fc fusion, not shown: a dimerising Fc or GST, VHH-Fc on IgG2 Fc) VHH: EVQLVESGGGLVQPGGSLRLSCAASGRTSNIYAMGWFRQAPGKEREWVASISTSGSTITPYADSVKGRFTISADNSKNTAYLQMNSLKPEDTAVYYCAAVYVSTWGNGYDWGQGTLVTVSS",398 MFI ratio,2.02 nM,0.000241 s⁻¹,119000 M⁻¹ s⁻¹
"IL1RL1-6 (Fc fusion, not shown: a dimerising Fc or GST, VHH-Fc on IgG2 Fc) VHH: EVQLVESGGGLVQPGGSLRLSCAASGRTISTYGMGWFRQAPGKEREWVSGINRDGSTYYADRVKGRFTISADNSKNTAYLQMNSLKPEDTAVYYCALRRLSPPPLLDWGQGTLVTVSS",128 MFI ratio,0.149 nM,3.7e-05 s⁻¹,248000 M⁻¹ s⁻¹
"IL1RL1-5 (Fc fusion, not shown: a dimerising Fc or GST, VHH-Fc on IgG2 Fc) VHH: EVQLVESGGGLVQPGGSLRLSCAASGRTFSSIVMGWFRQAPGKEREMVAVIIDSRTTKYADSVKGRFTISADNSKNTAYLQMNSLKPEDTAVYYCAAVGGATTVTASEWDWGQGTLVTVSS",508 MFI ratio,0.846 nM,0.000162 s⁻¹,191000 M⁻¹ s⁻¹
"IL1RL1-4 (Fc fusion, not shown: a dimerising Fc or GST, VHH-Fc on IgG2 Fc) VHH: EVQLVESGGGLVQPGGSLRLSCAASGNAFRSTVMGWFRQAPGKEREFVAVIIDSRTTKYADSVKGRFTISADNSKNTAYLQMNSLKPEDTAVYYCAAVGGATTVTASEWDWGQGTLVTVSS",472 MFI ratio,≤ 0.0574 nM,≤ 1e-05 s⁻¹,174000 M⁻¹ s⁻¹
"IL1RL1-53 (Fc fusion, not shown: a dimerising Fc or GST, VHH-Fc on IgG2 Fc) VHH: EVQLVESGGGLVQPGGSLRLSCAASGRTPSIIAMGWFRQAPGKERELVAVIIDSRTTKYADSVKGRFTISADNSKNTAYLQMNSLKPEDTAVYYCAAVGGATTVTASEWDWGQGTLVTVSS",441 MFI ratio,0.927 nM,0.000267 s⁻¹,289000 M⁻¹ s⁻¹
"IL1RL1-74 (Fc fusion, not shown: a dimerising Fc or GST, VHH-Fc on IgG2 Fc) VHH: EVQLVESGGGLVQPGGSLRLSCAASGFTFSSAIMGWFRQAPGKERELVAVIIDSRTTKYADSVKGRFTISADNSKNTAYLQMNSLKPEDTAVYYCAAVGGATTVTASEWDWGQGTLVTVSS",521 MFI ratio,≤ 0.0505 nM,≤ 1e-05 s⁻¹,198000 M⁻¹ s⁻¹
"IL1RL1-22 (Fc fusion, not shown: a dimerising Fc or GST) VHH: EVQLVESGGGLVQPGGSLRLSCAASGRTSNIYAMGWFRQAPGKEREWVASISTSGSTITPYADSVKGRFTISADNSKNTAYLQMNSLKPEDTAVYYCAIAHGSSTYNWGQGTLVTVSS",294 MFI ratio,1.36 nM,0.000243 s⁻¹,179000 M⁻¹ s⁻¹
"IL1RL1-14 (Fc fusion, not shown: a dimerising Fc or GST, VHH-Fc on IgG2 Fc) VHH: EVQLVESGGGLVQPGGSLRLSCAASGDISSIVAMGWFRQAPGKEREWVSSIDTGGGSNIVYADSVKGRFTISADNSKNTAYLQMNSLKPEDTAVYYCAAGLLDVQYVRQAAGYSWGQGTLVTVSS",515 MFI ratio,≤ 0.0744 nM,≤ 1e-05 s⁻¹,134000 M⁻¹ s⁻¹
"IL1RL1-90 (Fc fusion, not shown: a dimerising Fc or GST, VHH-Fc on IgG2 Fc) VHH: EVQLVESGGGLVQPGGSLRLSCAASGVTLDLYAMGWFRQAPGKEREAVASISSSGSSIYYADSVKGRFTISADNSKNTAYLQMNSLKPEDTAVYYCAANYGGSVLYNWGQGTLVTVSS",105 MFI ratio,≤ 0.078 nM,≤ 1e-05 s⁻¹,128000 M⁻¹ s⁻¹
"IL1RL1-8 (Fc fusion, not shown: a dimerising Fc or GST, VHH-Fc on IgG2 Fc) VHH: EVQLVESGGGLVQPGGSLRLSCAASGRTSNIYAMGWFRQAPGKEREFVASLSASGSLTWYADSVKGRFTISADNSKNTAYLQMNSLKPEDTAVYYCAANYGGSVLYNWGQGTLVTVSS",298 MFI ratio,≤ 0.166 nM,≤ 1e-05 s⁻¹,60300 M⁻¹ s⁻¹
"IL1RL1-20 (Fc fusion, not shown: a dimerising Fc or GST, VHH-Fc on IgG2 Fc) VHH: EVQLVESGGGLVQPGGSLRLSCAASGFSLDDRVMGWFRQAPGKEREFVAGITLGGSTSYADSVKGRFTISADNSKNTAYLQMNSLKPEDTAVYYCAAAPVPWGTRPSLLTYDWGQGTLVTVSS",396 MFI ratio,0.302 nM,2.92e-05 s⁻¹,96600 M⁻¹ s⁻¹
"IL1RL1-11 (Fc fusion, not shown: a dimerising Fc or GST, VHH-Fc on IgG2 Fc) VHH: EVQLVESGGGLVQPGGSLRLSCAASGRTFNWYAMGWFRQAPGKEREWVSSIGIAGTPTFYADSVKGRFTISADNSKNTAYLQMNSLKPEDTAVYYCAAVSSNSETFDWGQGTLVTVSS",446 MFI ratio,12.9 nM,0.000681 s⁻¹,52800 M⁻¹ s⁻¹
"IL1RL1-19 (Fc fusion, not shown: a dimerising Fc or GST, VHH-Fc on IgG2 Fc) VHH: EVQLVESGGGLVQPGGSLRLSCAASGRTDSTASMGWFRQAPGKEREEVAAISWSGGRTYYADSVKGRFTISADNSKNTAYLQMNSLKPEDTAVYYCARLAFQGNTVFDLWGQGTLVTVSS",486 MFI ratio,0.104 nM,1.29e-05 s⁻¹,123000 M⁻¹ s⁻¹
"IL1RL1-92 (Fc fusion, not shown: a dimerising Fc or GST, VHH-Fc on IgG2 Fc) VHH: EVQLVESGGGLVQPGGSLRLSCAASGRTHSTASMGWFRQAPGKEREEVAAISWSGGRTYYADSVKGRFTISADNSKNTAYLQMNSLKPEDTAVYYCARLAFQGNTVFDLWGQGTLVTVSS",484 MFI ratio,4.4 nM,0.000619 s⁻¹,141000 M⁻¹ s⁻¹
"IL1RL1-81 (Fc fusion, not shown: a dimerising Fc or GST, VHH-Fc on IgG2 Fc) VHH: EVQLVESGGGLVQPGGSLRLSCAASGVTLDLYAMGWFRQAPGKEREWVASISTSGSTITPYADSVKGRFTISADNSKNTAYLQMNSLKPEDTAVYYCAAIAYEEGVYRWDWGQGTLVTVSS",217 MFI ratio,0.285 nM,4.51e-05 s⁻¹,159000 M⁻¹ s⁻¹
"IL1RL1-82 (Fc fusion, not shown: a dimerising Fc or GST, VHH-Fc on IgG2 Fc) VHH: EVQLVESGGGLVQPGGSLRLSCAASGRTFSTLAMGWFRQAPGKEREWVASISTSGSTITPYADSVKGRFTISADNSKNTAYLQMNSLKPEDTAVYYCAAIAYEEGVYRWDWGQGTLVTVSS",344 MFI ratio,≤ 0.128 nM,≤ 1e-05 s⁻¹,78400 M⁻¹ s⁻¹
"IL1RL1-3 (Fc fusion, not shown: a dimerising Fc or GST) VHH: EVQLVESGGGLVQPGGSLRLSCAASGRTFSMGWFRQAPGKEREWVSSIGIAGTPTFYADSVKGRFTISADNSKNTAYLQMNSLKPEDTAVYYCASTDDYGVDWGQGTLVTVSS",492 MFI ratio,≤ 0.0524 nM,≤ 1e-05 s⁻¹,191000 M⁻¹ s⁻¹
"IL1RL1-7 (Fc fusion, not shown: a dimerising Fc or GST, VHH-Fc on IgG2 Fc) VHH: EVQLVESGGGLVQPGGSLRLSCAASGRTSNIYAMGWFRQAPGKEREPVASITPGGRFPAYADSVKGRFTISADNSKNTAYLQMNSLKPEDTAVYYCSTLYYSGLDPVDYWGQGTLVTVSS",586 MFI ratio,≤ 0.0757 nM,≤ 1e-05 s⁻¹,132000 M⁻¹ s⁻¹
"IL1RL1-15 (Fc fusion, not shown: a dimerising Fc or GST, VHH-Fc on IgG2 Fc) VHH: EVQLVESGGGLVQPGGSLRLSCAASGRTYSISAMGWFRQAPGKEREWVSSIGIAGTPTFYADSVKGRFTISADNSKNTAYLQMNSLKPEDTAVYYCAAGVTGGAAYGWGQGTLVTVSS",331 MFI ratio,3.23 nM,0.00041 s⁻¹,127000 M⁻¹ s⁻¹
